From article PMC3234860 (The Journal of Biological Chemistry, 2011) come the findings set out here.

In series [1] the target is T1, Sfr1 (S. pombe, UniProt Q9USV1 1-299).
T1 sequence: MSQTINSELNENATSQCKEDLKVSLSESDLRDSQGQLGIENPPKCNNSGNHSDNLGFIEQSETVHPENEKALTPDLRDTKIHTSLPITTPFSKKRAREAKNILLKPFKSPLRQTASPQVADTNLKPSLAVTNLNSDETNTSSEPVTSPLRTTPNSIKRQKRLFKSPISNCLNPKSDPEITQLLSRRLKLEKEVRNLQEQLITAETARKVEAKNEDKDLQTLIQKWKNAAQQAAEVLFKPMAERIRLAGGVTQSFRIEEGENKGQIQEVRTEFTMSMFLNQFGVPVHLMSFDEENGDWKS
The experiment in a line: AUC.

Series [2] concerns the molecule itself. The series is described as follows: native MS.

B1: Swi5 (natural protein)
chain: MEKSQLESRVHLLEQQKEQLESSLQDALAKLKNRDAKQTVQKHIDLLHTYNEIRDIALGMIGKVAEHEKCTSVELFDRFGVNGSE
A word on the stoichiometry N: it is the number of molecules, sites or subunits per partner or assembly. Regarding B1, the figures for the “stoichiometry N” value in series [1] and in series [2] were 1 Swi5:Sfr1 and 2, respectively.
